Measured values published in US20090029370A1.
Several values for one entry are separate records, joined by “and”; a condition that tells them apart may be missing. Identical values can stand only once.

Tests used:
[1] = target: β-fragment of EGFP (betaCys-fragment, 159-234 aa) biotinylated, tagged with streptavidin and a biotinylated 21-nt oligonucleotide (Aequorea victoria) [GFP: P42212]; assay: cell-based or functional assay
[2] = target: bacteriophage λN peptide fused to the N-terminus of β-EGFP (bacteriophage λ; Aequorea victoria) [GFP: P42212]; assay: cell-based or functional assay

Row | Substance | t½ of fluorescence increase upon mixing [1] [min] | average fluorescence over background (no RNA component), 0.01 mM IPTG [2] | signal/background ratio at reduced IPTG [2]
1 | α-fragment of EGFP (alphaCys-fragment, 1-158) biotinylated, tagged with streptavidin and a biotinylated 21-nt oligonucleotide (from UniProt P42212 1-158; P22629 37-163) | 1.67 | – | –
2 | α-EGFP fused at its C-terminus to HTLV-1 Rex peptide (from UniProt P42212 1-158) | – | 10 fold and 15 fold | 10 fold and 20 fold
